Test [1] addresses T1, IL-2 receptor α (UniProt P01589 22-213, limits assumed).
T1 construct: BLI used Anti-human IgG Fc Capture (AHC) probes with the IL-2 mutant diluted as analyte; also called IL-2Rα; CD25
T1 sequence (looked up): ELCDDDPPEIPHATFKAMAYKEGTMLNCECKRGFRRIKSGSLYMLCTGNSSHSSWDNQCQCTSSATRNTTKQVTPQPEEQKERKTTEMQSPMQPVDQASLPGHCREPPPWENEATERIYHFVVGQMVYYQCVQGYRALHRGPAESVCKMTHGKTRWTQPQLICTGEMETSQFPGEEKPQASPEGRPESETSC
Nature of the test: BLI, AHC probes. In general terms: Biolayer interferometry detects binding as a change in optical thickness at a sensor tip.

Test [2] addresses T1, IL-2 receptor α. As to the kind of experiment: BLI with AHC probes; C125A protein in 3-fold dilutions from 100 nM to 1.23 nM.
A further test addresses T2, IL-2 receptor β (UniProt P14784 27-239, limits assumed).
T2 construct: BLI used Anti-human IgG Fc Capture (AHC) probes with the IL-2 mutant diluted as analyte; also called IL-2Rβ; CD122
T2 sequence (looked up): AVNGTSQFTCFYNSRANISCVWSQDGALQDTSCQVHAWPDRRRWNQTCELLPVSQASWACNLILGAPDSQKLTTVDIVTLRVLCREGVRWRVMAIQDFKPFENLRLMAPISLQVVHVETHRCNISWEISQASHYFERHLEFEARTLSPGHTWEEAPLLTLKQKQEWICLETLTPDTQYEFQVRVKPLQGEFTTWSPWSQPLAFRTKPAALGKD
Nature of the test: BLI, AHC probes, IL-2 diluted 3-fold from 1000 nM to 12.35 nM.

Changes are numbered by the printed parent chain. Names may count otherwise.

Binding result and Kd data for 19 molecules are collected here from patent publication US20250282860A1 (SUZHOU FORLONG BIOTECHNOLOGY, published 2025).

B1: IL-2 mutant 21-C1 (ligand)
chain: APTSSSTKKTQLQLEHLLLDLQMILNGINNYKNPLLTDMLTLHFYMPKKATELKHLQCLEEELKPLEEVLNFAQSKNFHLRPRDLISNINVIVLELKGSETTFMCEYADETATIVEFLNRWITFCQSIISTLT
notes: Expressed in Expi293; also called 1.21-C1
Consider B1, for which, in the test with IL-2 receptor α [1], the binding result is given as “no binding (tested: 100 nM highest concentration)”.

B2: IL-2 mutant 23-H9 (ligand)
chain: B1 chain with L35G, L42Y, H43S, Y45D, F72L
notes: Expressed in Expi293; also called 10.23-H9
As for B2, the binding result in the test with IL-2 receptor α [1] was “no binding (tested: 100 nM highest concentration)”.

B3: IL-2 mutant 24-C2-C125A (ligand)
chain: B1 chain with L35D, D38E, L42F, H43K, F72S, C125A
Consider B3, for which, in the test with IL-2 receptor α [2], the binding result is “no binding (tested: 100 nM)”.

B4: IL-2 mutant 24-E4-C125A (ligand)
chain: B1 chain with L35D, L42F, H43K, F72A, C125A
As for B4, the binding result with IL-2 receptor α [2] is on record as “no binding (tested: 100 nM)”.

B5: IL-2 mutant 21-F10-C125A (ligand)
chain: B1 chain with L35E, L42F, H43K, F72A, C125A
As for B5, the binding result with IL-2 receptor α [2] was “no binding (tested: 100 nM)”.

B6: IL-2 mutant 22-E8 (ligand)
chain: B1 chain with L35D, D38E, L42F, H43K, F72Q
notes: Expressed in Expi293; also called 7.22-E8
As for B6, in the test with IL-2 receptor α [1], the binding result is reported as “no binding (tested: 100 nM highest concentration)”.

B7: IL-2 mutant 24-D2-C125A (ligand)
chain: B1 chain with L35E, L42F, H43K, F72G, C125A
For the molecule B7, in the test with IL-2 receptor α [2], the binding result was “no binding (tested: 100 nM)”.

B8: IL-2 mutant 21-F9 (ligand)
chain: B1 chain with L35M, L42V, H43G, Y45F
notes: Expressed in Expi293; also called 2.21-F9
Consider B8, for which, in the test with IL-2 receptor β, binding was characterised by a dissociation constant (Kd) of 50 nM. Moreover, the binding result with IL-2 receptor α [1] is listed as “no binding (tested: 100 nM highest concentration)”.

B9: IL-2 mutant 24-E4 (ligand)
chain: B1 chain with L35D, L42F, H43K, F72A
notes: Expressed in Expi293; also called 14.24-E4
Consider B9, for which the binding result with IL-2 receptor α [1] is “no binding (tested: 100 nM highest concentration)”.

B10: IL-2 mutant 24-D2 (ligand)
chain: B1 chain with L35E, L42F, H43K, F72G
notes: Expressed in Expi293; also called 13.24-D2
B10: the binding result with IL-2 receptor α [1] is on record as “no binding (tested: 100 nM highest concentration)”.

B11: IL-2 mutant 22-D11 (ligand)
chain: B1 chain with L35D, H43R, Y45F
notes: Expressed in Expi293; also called 6.22-D11
As for B11, the binding result in the test with IL-2 receptor α [1] is “no binding (tested: 100 nM highest concentration)”.

B12: IL-2 mutant 22-A4 (ligand)
chain: B1 chain with L35G, L42I, H43Q, Y45F
notes: Expressed in Expi293; also called 4.22-A4
As for B12, the binding result with IL-2 receptor α [1] is “no binding (tested: 100 nM highest concentration)”.

B13: IL-2 mutant 24-C6 (ligand)
chain: B1 chain with L35E, D38E, L42F, H43K, F72A
notes: Expressed in Expi293; also called 12.24-C6
For B13, the binding result with IL-2 receptor α [1] was “no binding (tested: 100 nM highest concentration)”.

B14: IL-2 mutant 22-E8-C125A (ligand)
chain: B1 chain with L35D, D38E, L42F, H43K, F72Q, C125A
Turning to B14, the binding result with IL-2 receptor α [2] was “no binding (tested: 100 nM)”.

B15: IL-2 mutant 23-C8-C125A (ligand)
chain: B1 chain with L35G, L42F, H43N, C125A
For the molecule B15, the binding result with IL-2 receptor α [2] was “no binding (tested: 100 nM)”.

B16: IL-2 mutant 23-C8 (ligand)
chain: B1 chain with L35G, L42F, H43N
notes: Expressed in Expi293; also called 9.23-C8
With B16, the binding result with IL-2 receptor α [1] is given as “no binding (tested: 100 nM highest concentration)”.

B17: IL-2 mutant 22-B2 (ligand)
chain: B1 chain with L35S, H43Q
notes: Expressed in Expi293; also called 5.22-B2
As to B17, in the test with IL-2 receptor α [1], the binding result is “no binding (tested: 100 nM highest concentration)”.

B18: IL-2 mutant 21-F10 (ligand)
chain: B1 chain with L35E, L42F, H43K, F72A
notes: Expressed in Expi293; also called 3.21-F10
As to B18, the binding result in the test with IL-2 receptor α [1] is given as “no binding (tested: 100 nM highest concentration)”.

B19: IL-2 mutant 24-C2 (ligand)
chain: B1 chain with L35D, D38E, L42F, H43K, F72S
notes: Expressed in Expi293; also called 11.24-C2
B19: the binding result in the test with IL-2 receptor α [1] is on record as “no binding (tested: 100 nM highest concentration)”.
